Assay results taken from IntAct's records for PubMed 20407420.

B1: Two-component response regulator-like APRR1 (Arabidopsis thaliana (Mouse-ear cress)), Q9LKL2 (parent)
chain: MDLNGECKGGDGFIDRSRVRILLCDNDSTSLGEVFTLLSECSYQVTAVKSARQVIDALNAEGPDIDIILAEIDLPMAKGMKMLRYITRDKDLRRIPVIMMSRQDEVPVVVKCLKLGAADYLVKPLRTNELLNLWTHMWRRRRMLGLAEKNMLSYDFDLVGSDQSDPNTNSTNLFSDDTDDRSLRSTNPQRGNLSHQENEWSVATAPVHARDGGLGADGTATSSLAVTAIEPPLDHLAGSHHEPMKRNSNPAQFSSAPKKSRLKIGESSAFFTYVKSTVLRTNGQDPPLVDGNGSLHLHRGLAEKFQVVASEGINNTKQARRATPKSTVLRTNGQDPPLVNGNGSHHLHRGAAEKFQVVASEGINNTKQAHRSRGTEQYHSQGETLQNGASYPHSLERSRTLPTSMESHGRNYQEGNMNIPQVAMNRSKDSSQVDGSGFSAPNAYPYYMHGVMNQVMMQSAAMMPQYGHQIPHCQPNHPNGMTGYPYYHHPMNTSLQHSQMSLQNGQMSMVHHSWSPAGNPPSNEVRVNKLDRREEALLKFRRKRNQRCFDKKIRYVNRKRLAERRPRVKGQFVRKMNGVNVDLNGQPDSADYDDEEEEEEEEEEENRDSSPQDDALGT
B2: Two-component response regulator-like APRR1 (Arabidopsis thaliana (Mouse-ear cress)), Q9LKL2 (parent)
chain: B1 chain
partner: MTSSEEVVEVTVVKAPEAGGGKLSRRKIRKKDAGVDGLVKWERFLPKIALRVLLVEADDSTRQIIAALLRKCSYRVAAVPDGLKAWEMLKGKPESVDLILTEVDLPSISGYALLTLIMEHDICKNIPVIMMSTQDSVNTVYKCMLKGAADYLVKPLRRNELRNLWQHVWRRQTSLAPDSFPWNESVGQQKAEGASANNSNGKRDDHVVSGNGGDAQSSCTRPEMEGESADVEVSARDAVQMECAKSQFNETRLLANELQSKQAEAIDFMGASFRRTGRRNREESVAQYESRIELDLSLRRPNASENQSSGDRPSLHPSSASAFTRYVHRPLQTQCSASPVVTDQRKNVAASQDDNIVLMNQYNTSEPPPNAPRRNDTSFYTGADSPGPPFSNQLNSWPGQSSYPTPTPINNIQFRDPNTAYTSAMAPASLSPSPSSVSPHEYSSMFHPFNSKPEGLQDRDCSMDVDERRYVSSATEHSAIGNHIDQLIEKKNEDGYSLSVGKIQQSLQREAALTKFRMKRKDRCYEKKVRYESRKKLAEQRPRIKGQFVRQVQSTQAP

Variants of: B1
Details: with ado1_arath ADO1, Q94BT6
Chain of ado1_arath ADO1, Q94BT6 (Q94BT6 whole entry): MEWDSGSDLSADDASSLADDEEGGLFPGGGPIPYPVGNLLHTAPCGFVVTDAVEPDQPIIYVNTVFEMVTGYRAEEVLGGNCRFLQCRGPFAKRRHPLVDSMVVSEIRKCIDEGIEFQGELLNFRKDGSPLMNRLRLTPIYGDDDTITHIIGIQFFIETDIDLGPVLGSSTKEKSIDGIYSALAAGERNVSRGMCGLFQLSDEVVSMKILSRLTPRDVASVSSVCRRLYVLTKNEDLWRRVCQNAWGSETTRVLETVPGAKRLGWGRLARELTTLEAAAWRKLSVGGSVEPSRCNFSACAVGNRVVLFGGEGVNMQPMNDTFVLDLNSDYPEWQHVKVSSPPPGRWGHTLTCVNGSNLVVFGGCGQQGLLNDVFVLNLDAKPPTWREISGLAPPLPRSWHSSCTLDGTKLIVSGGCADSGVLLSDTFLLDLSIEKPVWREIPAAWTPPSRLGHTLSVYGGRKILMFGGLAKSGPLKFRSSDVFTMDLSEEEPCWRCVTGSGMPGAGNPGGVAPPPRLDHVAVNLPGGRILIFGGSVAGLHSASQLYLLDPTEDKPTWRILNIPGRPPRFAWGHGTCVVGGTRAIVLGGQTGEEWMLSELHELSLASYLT

| effect of a mutation on the interaction | Variant |
| --- | --- |
| decreasing interaction | P96L |

Variants of: B2
Details: with aprr5_arath APRR5, Q6LA42

| effect of a mutation on the interaction | Variant |
| --- | --- |
| decreasing interaction | P124S |

Variants of: B2
Details: with aprr5_arath APRR5, Q6LA42
Remark: another data set of the same source

| effect of a mutation on the interaction | Variant |
| --- | --- |
| disrupting interaction | P96L |
